Results as given in the RNAGym collection of RNA variant scans (doi:10.1073/pnas.2313332121).
Variants at the floor of the assay were thinned out.

B1: TPR 5TU (parent)
chain: GGAUCUUCUCGAUCUAACAAAAAAGACAAAUCUGCCACAAAGCUUGAGAGCAUCUUCGGAUGCAGAGGCGGCAGCCUUCGGUGGCGCGAUAGCGCCAACGUUCUCAACUAUGACACGCAAAACGCGUGCUCCGUUGAAUGGAGUUUAUCAUG

Variants of: B1
Assay: polymerase ribozyme fitness, log enrichment relative to wild type (log ratio); higher = more active; in vitro selection for triplet polymerase activity
How it was run: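 Each subunit of a heterodimeric triplet polymerase ribozyme was mutagenized into a library by PCR, transcribed, and subjected to one round of in vitro selection, run in triplicate. Libraries were annealed with a biotinylated primer, the partner subunit and triplets, incubated frozen at −7 °C, and extended constructs were gel-excised, captured on streptavidin beads and recovered by RT-PCR. Input and output libraries were sequenced on Illumina, keeping genotypes with ≥10 input reads and ≥1 read per output. Fitness is log base 2 of genotype enrichment divided by wild-type enrichment, from inverse-variance-weighted replicate averages.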
For GGAUCUUCUCGAUCUAACAAAAAAGAUAAAUCUGCCACAAAGCUUGAGAGCAUCUUCGGAUGCAGAGGCGGCAGCCUUCGGUGGCGCGAUAGCGCCGACGUUCUCAACUAUGACACGCAAAACGCGUGCUACGUUGAAUGGAGUUUAUCACG [C27U A97G C131A U151C], the “polymerase ribozyme fitness (log ratio)” value was ≤ -4.2.
For GGAUCUUCUCGAUCUAACAAAAAAGAUAAAUCUGCCACAAAGCUUGGGAGCCUCUUCGGAUGCAGAGGCGGCAGCCUUCGGUAGCGCGAUAGCGCCAACGUUCUCAACUAUGACACGCAAAACGCGUGCUCCGUUGAAUGGAGUUGAUCAUG [C27U A47G A52C G83A U146G], the “polymerase ribozyme fitness (log ratio)” value was -3.62.
With GGAUCUUCUCGAUCUAACAAAAAAGAUAAAUCUGACACAAAGCUUGAGAGCAUCUUCGGAUGCAGAGGCGGCAGCCUUCGGUGGCGCGAUAGCGCCAACGUUCUCAACUAUGACACGCAAAACGCGUGCUCCUUUGAAUGGAGUUUAUGAUG [C27U C35A G133U C149G] the “polymerase ribozyme fitness (log ratio)” value was ≤ -4.2.
In the case of GGAUCUUCUCGAUCUAACAAAAAAGAUAAAUCUGCCACAUAGCUUGAGAGCAUCUUCCUAUGCAGAGGCGGCAGCCUUCGGUGGCGCGAUAUCGCCAACGUUCUCAACUAUGACACGCAAAACGCGUGCUCCGUUGAAUGGAGUUUAUCAUG [C27U A40U G58C G59U G92U], the “polymerase ribozyme fitness (log ratio)” value is reported as -2.23.
With GGAUCUUCUCGAUCUAACAAAAAAGAUAAAUCUGCCACAAAGCUUGAGAGCCUCUUCGGUUGCAGAGGCGGCAGCUUUCGGUGUCGCGAUAGCGCGAACGUUCUCAACCAUGACACGCAAAACGCGUGCUCCGUUGAAUGGAGUUUAUCAUG [C27U A52C A60U C76U G84U C96G U109C] the “polymerase ribozyme fitness (log ratio)” value was ≤ -4.2.
In the case of GGAUCUUCUCGAUCUAACAAAAAAGAUAAAUCUGCUACAAAGCUUGAGAGCAUCUUCGGAUGCAGAGGCGGCAGCCUUCGGUGGCGCGAUAGCGCCAACGUUCUCAACUAUGACACGCAAAACGCGUGCUCCGUUGAAUGGAGUUUAUCAUG [C27U C36U], the “polymerase ribozyme fitness (log ratio)” value is reported as -2.88.
For GGAUCUUCUCGAUCUAACAAAAAAGAUAAAUCUGCCAUAAAGCUUGAGAGCUUCUUCGGAUGCAGAGGCGGCAGCCUUCGGUGGGGCUAUAGCGCCAACGUGCUCAACUAUGACACGCAAAACGCGUGCUCCGUUGAAUGGAGUUUAUCAUG [C27U C38U A52U C85G G88U U102G], the “polymerase ribozyme fitness (log ratio)” value was ≤ -4.2.
In the case of GGAUCUUCUCGAUCUAACAAAAAAGAUAAAUCUGCCACAAAGCUUGAGAGCAUCUUCGGAUGCAGAGGCGGCAGCCUUCGGUGGCGCGAUAGCGCCAACGUUCUCAACUAUGACACGCAAAACGCGUGCUCCGUUGAGUGGAGUUUAUCAUG [C27U A138G], the “polymerase ribozyme fitness (log ratio)” value is reported as -3.72.
For GGAUCUUCUCGAUCUAACAAAAAAGAUAAAUCUGCCACAAAGCUUGAGCGCAUCUUCGGAUGCAGAGGCGGCAGCCUUCGGUGGCGCGAUAGCGCCAGAGUUCUCAACUAUGACACGCAAAACGUGUGCUCCGUUGAAUGGAGUUUACCAUG [C27U A49C A98G C99A C125U U148C], the “polymerase ribozyme fitness (log ratio)” value was ≤ -4.2.
For GGAUCUUCUCGAUCUAACAAAAAAGAUAAAUCUGCAACAAAGCUUGAGAGCAUCUUCGGAUGCAGAGGCGGCAGCCUUCGGUGGCGCGAUAGCGCCAACGUUCUCAAGUAUGACACGCAAAACGCGUGCUCCGUUGAAGGGAGUCUAUCAUG [C27U C36A C108G U139G U145C], the “polymerase ribozyme fitness (log ratio)” value was -3.87.
In the case of GGAUCUUCUCGAUCUAACAAAAAAGAUAAAUCUGCCACAAAGCUUGCGAGCAUCUUCGGAUGCAGAGGCGGCAGCCUUCGGUGGCGCGAUAGCGCCAACGUUCUCAACUAUGACACGCAAAACGCGUUCUCCGUUGAAUGGAGUUUAUCAUG [C27U A47C G128U], the “polymerase ribozyme fitness (log ratio)” value is reported as ≤ -4.2.
With GGAUCUUCUCGAUCUAACAAAAAAGAUAAAUCUGCCACAAAGCUUGAGAGCAUCUUCGGAUGCAGAGGCGGCAGCCUUCGGUGGCGCGAUAGCGCCAACGUUCUCAACUAUGACACGCAAAGCGCGUGCUCCGUUGAAUGGAGUUUAUCAUG [C27U A122G] the “polymerase ribozyme fitness (log ratio)” value was -2.4.
In the case of GGAUCUUCUCGAUCUAACAAAAAAGAUAAAUCUGCCACAACGCUUGAGAGCCUGUUCGGAUGCAGAGGCGGCAGCCUUCGGUGGCGCGAUAGCGGCAACGUACUCAACUAUGACACGCAAAACGCGUGCUCCGUUGAAUGGAGUUUAUCAUG [C27U A41C A52C C54G C95G U102A], the “polymerase ribozyme fitness (log ratio)” value is reported as ≤ -4.2.
In the case of GGAUCUUCUCGAUCUAACAAAAAAGAUAAAUCUGCCACAAAGCUUGCGAGCAUCUGCGGAUGCAGAGGCGGCAGCUUACGGUGGCGCGAUAGCACCUACGUUCUCAACUAUGACACGUAAAACGCGUGCUCCGUUGAAUGGAGUUUAUCAUG [C27U A47C U56G C76U U78A G94A A97U C118U], the “polymerase ribozyme fitness (log ratio)” value is reported as ≤ -4.2.
In the case of GGAUCUUCUCGAUCUAACAAAAAAGAUAAAUCUGCCACAAGGCUUGCGAGCAACUUCGGAUGCAGAGGCGGCAGCCUCCGGUGGCGCGAUAGAGCCAACGUUCUCAACUUUGACACGCAAAACGCGUGCUCCGUUGAAUGGAGUUUAUCAUG [C27U A41G A47C U53A U78C C93A A110U], the “polymerase ribozyme fitness (log ratio)” value is reported as ≤ -4.2.
With GGAUCUUCUCGAUCUAACAAAAAAGAUAAAUCUGCCACAAAGCUUGAGAGCAUCUUCGGAUGCAGAGGCGGCAGCCUUCGGUGGCGCGAUGGCGCCAACGUUCUCAACUAUGACACGCAAAACGCGUGCUCCGUUGAAUGGAGUUUCUCAUU [C27U A91G A147C G152U] the “polymerase ribozyme fitness (log ratio)” value was ≤ -4.2.
For GGAUCUUCUCGAUCUAACAAAAAAGAUAAAUCUGCCACAAAGCUUGCGAGCAUCUUCGGAUGCAGAGGCGGCAGCCUUCGGUGGCGCGAUAGCGCCAACGUUCUCAACUAUGACACGCAAAACGCGUGCUCCGUUGAAUGGAGUUUAUCAUG [C27U A47C], the “polymerase ribozyme fitness (log ratio)” value was -1.01.
With GGAUCUUCUCGAUCUAACAAAAAAGAUAAAUGUGCUACAAAGCUUGAGAGCAUCUUCGGAUGCAGAGGCGGCAGCCUUCGGUGGCGGGAUAGCGCCAACGUUCUCAACUAUGACACGCAAAACGCGUGCUCCGUUGAAUGGAGUUUAUCAUG [C27U C32G C36U C87G] the “polymerase ribozyme fitness (log ratio)” value was ≤ -4.2.
For GGAUCUUCUCGAUCUAACAAAAAAGAUAAAUCUGCCACAAAGCUUGAGAGCAUCUUCGGAUGCAGGGGCGGCAGCCUUCGGUGGCGCAAUAGCGCCAACGUUCUCAACUAUGACACGCAAAACGCGUGCUCCGUUAAAUGGAGUUUAUCAUG [C27U A66G G88A G136A], the “polymerase ribozyme fitness (log ratio)” value was ≤ -4.2.
